Experimental data from patent US20230002480A1.

Columns and labels:
Assay in all cases: cell-based or functional assay
[1] = target: HIV-1 Env pseudovirus 191955_A11 (HIV-1)
[2] = target: HIV-1 Env pseudovirus 263-8 (HIV-1)
[3] = target: HIV-1 Env pseudovirus 3016.v5.c45 (HIV-1)
[4] = target: HIV-1 Env pseudovirus 620345.c01 (HIV-1)
[5] = target: HIV-1 Env pseudovirus 6540.v4.c1 (HIV-1)
[6] = target: HIV-1 Env pseudovirus 89-F1_2_25 (HIV-1)
[7] = target: HIV-1 Env pseudovirus 9004SS_A3_4 (HIV-1)
[8] = target: HIV-1 Env pseudovirus BJOX010000.06.2 (HIV-1)
[9] = target: HIV-1 Env pseudovirus C2101.c01 (HIV-1)
[10] = target: HIV-1 Env pseudovirus T257-31 (HIV-1)
[11] = target: HIV-1 Env pseudovirus X1254_c3 (HIV-1)
[12] = target: HIV-1 Env pseudovirus X1632_S2_B10 (HIV-1)
[13] = target: HIV-1 Env of pseudovirus 1012_11_TC21_3257 (clade B (T/F)) (HIV-1)
[14] = target: HIV-1 Env of pseudovirus 249M B10 (clade C (T/F)) (HIV-1)
[15] = target: HIV-1 Env of pseudovirus 6240_08_TA5_4622 (clade B (T/F)) (HIV-1)
[16] = target: HIV-1 Env of pseudovirus 6535.3 (clade B) (HIV-1)
[17] = target: HIV-1 Env of pseudovirus CNE19 (clade BC) (HIV-1)
[18] = target: HIV-1 Env of pseudovirus CNE21 (clade BC) (HIV-1)
[19] = target: HIV-1 Env of pseudovirus Du156.12 (clade C) (HIV-1)
[20] = target: HIV-1 Env of pseudovirus MS208.A1 (clade A) (HIV-1)
[21] = target: HIV-1 Env of pseudovirus Q23.17 (clade A) (HIV-1)
[22] = target: HIV-1 Env of pseudovirus Q259.d2.17 (clade A) (HIV-1)
[23] = target: HIV-1 Env of pseudovirus REJO4541.67 (clade B) (HIV-1)
[24] = target: HIV-1 Env of pseudovirus ZM135M.PL10a (clade C) (HIV-1)
[25] = target: HIV-1 Env of pseudovirus ZM233M.PB6 (clade C) (HIV-1)
[26] = target: MuLV envelope (negative control pseudovirus) (MuLV)
[27] = target: HIV-1 Env of pseudovirus 235-47 (clade CRF02_AG) (HIV-1)
[28] = target: HIV-1 Env of pseudovirus C2101.c01 (clade CRF01_AE) (HIV-1)
[29] = target: HIV-1 Env of pseudovirus C3347.c11 (clade CRF01_AE) (HIV-1)
[30] = target: HIV-1 Env of pseudovirus P0402_c2_11 (clade G) (HIV-1)
[31] = target: HIV-1 Env of pseudovirus R2184.c04 (clade CRF01_AE) (HIV-1)
[32] = target: HIV-1 Env of pseudovirus T278-50 (clade CRF02_AG) (HIV-1)
[33] = target: HIV-1 Env of pseudovirus X1254_c3 (clade G) (HIV-1)

## N49P19 (antibody)
[1]
  IC50: > 50 µg/mL
  IC80: > 50 µg/mL
  MPI: 16
[2]
  IC50: 0.344 µg/mL
  IC80: 1.51 µg/mL
  MPI: 99
[3]
  IC50: > 50 µg/mL
  IC80: > 50 µg/mL
  MPI: 9
[4]
  IC50: > 50 µg/mL
  IC80: > 50 µg/mL
  MPI: 0
[5]
  IC50: 11.2 µg/mL
  IC80: > 50 µg/mL
  MPI: 63
[6]
  IC50: > 50 µg/mL
  IC80: > 50 µg/mL
  MPI: 7
[7]
  IC50: 0.661 µg/mL
  IC80: 3.09 µg/mL
  MPI: 100
[8]
  IC50: 4.16 µg/mL
  IC80: 19.1 µg/mL
  MPI: 96
[9]
  IC50: 0.978 µg/mL
  IC80: 4.19 µg/mL
  MPI: 100
[10]
  IC50: 0.661 µg/mL
  IC80: 3 µg/mL
  MPI: 100
[11]
  IC50: > 50 µg/mL
  IC80: > 50 µg/mL
  MPI: 48
[12]
  IC50: > 50 µg/mL
  IC80: > 50 µg/mL
  MPI: 14

## N49P9 (antibody)
[1]
  IC50: > 50 µg/mL
  IC80: > 50 µg/mL
  MPI: 35
[2]
  IC50: 0.032 µg/mL
  IC80: 0.161 µg/mL
  MPI: 100
[3]
  IC50: 0.06 µg/mL
  IC80: 0.209 µg/mL
  MPI: 100
[4]
  IC50: > 50 µg/mL
  IC80: > 50 µg/mL
  MPI: 9
[5]
  IC50: > 50 µg/mL
  IC80: > 50 µg/mL
  MPI: 49
[6]
  IC50: > 50 µg/mL
  IC80: > 50 µg/mL
  MPI: 23
[7]
  IC50: 0.175 µg/mL
  IC80: 0.751 µg/mL
  MPI: 100
[8]
  IC50: 0.482 µg/mL
  IC80: 2.34 µg/mL
  MPI: 100
[9]
  IC50: 0.051 µg/mL
  IC80: 0.209 µg/mL
  MPI: 100
[10]
  IC50: 0.216 µg/mL
  IC80: 0.821 µg/mL
  MPI: 100
[11]
  IC50: 0.04 µg/mL
  IC80: 0.104 µg/mL
  MPI: 100
[12]
  IC50: 46.7 µg/mL
  IC80: > 50 µg/mL
  MPI: 51

## N49P7.2 (antibody)
[13]
  IC50: 0.06 µg/mL
  IC80: 0.285 µg/mL
  MPI: 100
[14]
  IC50: 0.095 µg/mL
  IC80: 0.349 µg/mL
  MPI: 100
[15]
  IC50: 0.812 µg/mL
  IC80: 2.87 µg/mL
  MPI: 100
[16]
  IC50: 0.152 µg/mL
  IC80: 0.784 µg/mL
  MPI: 100
[17]
  IC50: 0.033 µg/mL
  IC80: 0.129 µg/mL
  MPI: 100
[18]
  IC50: 48.3 µg/mL
  IC80: > 50 µg/mL
  MPI: 51
[19]
  IC50: 0.058 µg/mL
  IC80: 0.21 µg/mL
  MPI: 100
[20]
  IC50: 0.186 µg/mL
  IC80: 0.966 µg/mL
  MPI: 100
[21]
  IC50: 0.051 µg/mL
  IC80: 0.2 µg/mL
  MPI: 100
[22]
  IC50: 38.5 µg/mL
  IC80: > 50 µg/mL
  MPI: 54
[23]
  IC50: 0.018 µg/mL
  IC80: 0.08 µg/mL
  MPI: 100
[24]
  IC50: 0.596 µg/mL
  IC80: 2.8 µg/mL
  MPI: 99
[25]
  IC50: 0.475 µg/mL
  IC80: 2.14 µg/mL
  MPI: 99
[26]
  IC50: > 50 µg/mL
  IC80: > 50 µg/mL
  MPI: 4

## N49P9.1 (antibody)
[1]
  IC50: > 50 µg/mL
  IC80: > 50 µg/mL
  MPI: 26
[2]
  IC50: 0.049 µg/mL
  IC80: 0.17 µg/mL
  MPI: 100
[3]
  IC50: 0.076 µg/mL
  IC80: 0.223 µg/mL
  MPI: 100
[4]
  IC50: > 50 µg/mL
  IC80: > 50 µg/mL
  MPI: 7
[5]
  IC50: > 50 µg/mL
  IC80: > 50 µg/mL
  MPI: 30
[6]
  IC50: > 50 µg/mL
  IC80: > 50 µg/mL
  MPI: 23
[7]
  IC50: 0.323 µg/mL
  IC80: 1.13 µg/mL
  MPI: 100
[8]
  IC50: 0.883 µg/mL
  IC80: 4.26 µg/mL
  MPI: 100
[9]
  IC50: 0.085 µg/mL
  IC80: 0.227 µg/mL
  MPI: 100
[10]
  IC50: 0.508 µg/mL
  IC80: 1.82 µg/mL
  MPI: 100
[11]
  IC50: 0.101 µg/mL
  IC80: 0.278 µg/mL
  MPI: 100
[12]
  IC50: > 50 µg/mL
  IC80: > 50 µg/mL
  MPI: 10

## 10E8 (antibody)
[27]
  IC50, titer in TZM.bl cells: 0.384 µg/mL
  IC80, titer in TZM.bl cells: 2.07 µg/mL
[28]
  IC50, titer in TZM.bl cells: 1.92 µg/mL
  IC80, titer in TZM.bl cells: 8.26 µg/mL
[29]
  IC50, titer in TZM.bl cells: 0.016 µg/mL
  IC80, titer in TZM.bl cells: 0.167 µg/mL
[30]
  IC50, titer in TZM.bl cells: 0.172 µg/mL
  IC80, titer in TZM.bl cells: 3.29 µg/mL
[31]
  IC50, titer in TZM.bl cells: 0.272 µg/mL
  IC80, titer in TZM.bl cells: 2.46 µg/mL
[32]
  IC50, titer in TZM.bl cells: 0.949 µg/mL
  IC80, titer in TZM.bl cells: 7.46 µg/mL
[33]
  IC50, titer in TZM.bl cells: 4.75 µg/mL
  IC80, titer in TZM.bl cells: > 10 µg/mL

## N49P6 (antibody)
[26]
  IC50: > 50 µg/mL
  IC80: > 50 µg/mL
  MPI: 0
